Test results from paper PMC11606499, “Molecular principles of the assembly and construction of a carboxysome shell” (Science Advances, 2024).
Values belong to the binder of their own block, whether it stands above or below them.

B1: His-tagged CsoS1B (expressed alone or coexpressed with CsoS1A or CsoS1C) (natural protein, Halothiobacillus neapolitanus c2, UniProt P45690 1-110, looked up)
chain: MATTHGIALGMIETRGLVPAIEAADAMTKAAEVRLVGRSFVGGGYVTVMVRGETGAVNAAVRAGADACERVGDGLVAAHIIARVHSEVEIILPETPEDSDSAWCIANLNS
notes: CsoS1B, Halothiobacillus neapolitanus c2; gene fragment amplified from the cso-2 operon; Six copies when expressed alone; about 1.5 copies per hexamer in the coexpressed CsoS1A/B sample; source: E. coli BL21 (DE3), pET-22b, purified (Ni-NTA, Superdex 200); not shown: His tag, C-terminal, kept
B4: CsoS1A (in recombinant α-carboxysome midi-shells) (natural protein, Halothiobacillus neapolitanus c2)
chain: MADVTGIALGMIETRGLVPAIEAADAMTKAAEVRLVGRQFVGGGYVTVLVRGETGAVNAAVRAGADACERVGDGLVAAHIIARVHSEVENILPKAPQA
notes: CsoS1A, hexameric shell protein of the α-carboxysome, Halothiobacillus neapolitanus c2; the gene as it stands in the midi-shell operon derived from the synthetic cso-2 operon; CsoS1A, CsoS1B and CsoS1C could not be told apart in the symmetrised maps; also called CsoS1 hexamer; BMC-H; source: E. coli BW25113, midi-shell operon (L-arabinose induced), in purified shells
B7: CsoS1C (in the CsoS1C-based T = 9 mini-shell) (natural protein, Halothiobacillus neapolitanus c2)
chain: MAAVTGIALGMIETRGLVPAIEAADAMTKAAEVRLVGRQFVGGGYVTVLVRGETGAVNAAVRAGADACERVGDGLVAAHIIARVHSEVENILPKAPEA
notes: CsoS1C, shell hexamer paralog, Halothiobacillus neapolitanus c2; differs from CsoS1A at the 3rd and 97th amino acids; the gene as it stands in the mini-shell operon; source: E. coli BW25113, CsoS1C-based mini-shell operon, in purified shells

Assays:
[1] = target: the molecule itself; experiment: SEC + other: dynamic light scattering; Superdex 200 in 50 mM tris-HCl pH 8.0, 100 mM NaCl; DLS on DynaPro NanoStar, in triplicate; proteins expressed alone or coexpressed and purified by Ni-NTA through the His tag of one of them
[2] = target: B7; experiment: cryo-EM structure; purified CsoS1C-based T = 9 mini-shell assembled in E. coli from the coexpressed proteins; 1.8 Å; conditions: both partners purified
[3] = target: B4; experiment: cryo-EM structure; purified midi-shells assembled in E. coli from the coexpressed proteins; T = 9, T = 9 Q = 12, T = 13, T = 16 and T = 19 shells at 2.3, 2.99, 2.93, 2.75 and 3.04 Å, symmetry imposed; conditions: both partners purified
[4] = target: the molecule itself; experiment: as above
[5] = target: the molecule itself; experiment: SEC; Superdex 200 in 50 mM tris-HCl pH 8.0, 100 mM NaCl; individually expressed CsoS4 proteins
[6] = target: T1, C-terminal domain of CsoS2 (CsoS2-C) (Halothiobacillus neapolitanus c2, UniProt O85041 604-869); experiment: cryo-EM structure; purified midi-shells assembled in E. coli from the coexpressed proteins; T = 9, T = 9 Q = 12, T = 13, T = 16 and T = 19 shells at 2.3, 2.99, 2.93, 2.75 and 3.04 Å, symmetry imposed; conditions: both partners purified
T1 construct: CsoS2, scaffolding/linker protein of the α-carboxysome, Halothiobacillus neapolitanus c2; source: E. coli BW25113, midi-shell operon or CsoS1C-based mini-shell operon, in purified shells
T1 sequence (looked up): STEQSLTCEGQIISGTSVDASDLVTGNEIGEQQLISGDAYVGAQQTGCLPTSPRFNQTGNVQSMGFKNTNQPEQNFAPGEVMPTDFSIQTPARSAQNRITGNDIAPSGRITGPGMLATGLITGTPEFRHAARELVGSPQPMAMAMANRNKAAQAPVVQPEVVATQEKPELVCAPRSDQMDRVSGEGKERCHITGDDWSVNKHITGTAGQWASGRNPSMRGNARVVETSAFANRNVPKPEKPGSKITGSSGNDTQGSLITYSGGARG

[7] = target: the molecule itself; experiment: crystal structure; crystals of the purified coexpressed CsoS1A and His-tagged CsoS1B sample, hanging drop, 18°C; 2.1 Å
[8] = target: B1; experiment: SDS-PAGE of washed crystals; crystals of the coexpressed CsoS1A and His-tagged CsoS1B sample, washed with buffer for various times before SDS-PAGE; conditions: both partners purified
[9] = target: T1, C-terminal domain of CsoS2 (CsoS2-C); experiment: cryo-EM structure; purified CsoS1C-based T = 9 mini-shell assembled in E. coli from the coexpressed proteins; 1.8 Å; conditions: both partners purified
[10] = target: the molecule itself; experiment: as above
[11] = target: B1; experiment: SEC + other: dynamic light scattering; Superdex 200 in 50 mM tris-HCl pH 8.0, 100 mM NaCl; DLS on DynaPro NanoStar, in triplicate; proteins expressed alone or coexpressed and purified by Ni-NTA through the His tag of one of them; conditions: both partners purified
[12] = target: T2, CsoS4A (untagged, coexpressed with His-tagged CsoS4B) (Halothiobacillus neapolitanus c2, UniProt O85043 1-83); experiment: as above; conditions: both partners purified
T2 construct: CsoS4A, Halothiobacillus neapolitanus c2; gene amplified from the cso-2 operon, the His tag stands on CsoS4B only; source: E. coli BL21 (DE3), pET-22b csoS4A-csoS4B, co-purified with His-tagged CsoS4B (Ni-NTA, Superdex 200)
T2 sequence: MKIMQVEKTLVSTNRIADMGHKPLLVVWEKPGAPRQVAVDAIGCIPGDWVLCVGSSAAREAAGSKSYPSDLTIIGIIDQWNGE

Binder: B1
stoichiometry N [1]: 6

binding result [2]: binds
binding result [3]: binds
B2: CsoS4A (in recombinant α-carboxysome shells) (natural protein, Halothiobacillus neapolitanus c2)
chain: MKIMQVEKTLVSTNRIADMGHKPLLVVWEKPGAPRQVAVDAIGCIPGDWVLCVGSSAAREAAGSKSYPSDLTIIGIIDQWNGE
notes: CsoS4A, pentameric vertex protein of the α-carboxysome shell, Halothiobacillus neapolitanus c2; the gene as it stands in the shell operon; All pentamers of the shell models were assigned to CsoS4A; also called CsoS4 pentamer; BMC-P; source: E. coli BW25113, midi-shell operon or CsoS1C-based mini-shell operon, in purified shells
stoichiometry N [4]: 5

B3: CsoS4A (individually expressed, C-terminal His tag) (natural protein, Halothiobacillus neapolitanus c2)
chain: MKIMQVEKTLVSTNRIADMGHKPLLVVWEKPGAPRQVAVDAIGCIPGDWVLCVGSSAAREAAGSKSYPSDLTIIGIIDQWNGE
notes: CsoS4A, Halothiobacillus neapolitanus c2; gene fragment amplified from the cso-2 operon; In solution pentamers and other aggregation forms; source: E. coli BL21 (DE3), pET-22b, purified (Ni-NTA, Superdex 200)
stoichiometry N [5]: 5

Binder: B4
binding result [6]: binds
stoichiometry N [4]: 6

stoichiometry N [8]: ~3 CsoS1A per CsoS1B
B5: CsoS1A (untagged, coexpressed with His-tagged CsoS1B) (natural protein, Halothiobacillus neapolitanus c2)
chain: MADVTGIALGMIETRGLVPAIEAADAMTKAAEVRLVGRQFVGGGYVTVLVRGETGAVNAAVRAGADACERVGDGLVAAHIIARVHSEVENILPKAPQA
notes: CsoS1A, Halothiobacillus neapolitanus c2; gene amplified from the cso-2 operon, the His tag stands on CsoS1B only; also called S1A-S1B (coexpressed sample); source: E. coli BL21 (DE3), pET-22b csoS1A-csoS1B, co-purified with His-tagged CsoS1B (Ni-NTA, Superdex 200)
stoichiometry N [7]: 6

B6: His-tagged CsoS1A (individually expressed) (natural protein, Halothiobacillus neapolitanus c2)
chain: MADVTGIALGMIETRGLVPAIEAADAMTKAAEVRLVGRQFVGGGYVTVLVRGETGAVNAAVRAGADACERVGDGLVAAHIIARVHSEVENILPKAPQA
notes: CsoS1A, Halothiobacillus neapolitanus c2; gene fragment amplified from the cso-2 operon; source: E. coli BL21 (DE3), pET-22b, purified (Ni-NTA, Superdex 200); not shown: His tag, C-terminal, kept
stoichiometry N [1]: 6

Binder: B7
binding result [9]: binds
stoichiometry N [10]: 6

B8: CsoS1C (individually expressed, C-terminal His tag) (natural protein, Halothiobacillus neapolitanus c2)
chain: MAAVTGIALGMIETRGLVPAIEAADAMTKAAEVRLVGRQFVGGGYVTVLVRGETGAVNAAVRAGADACERVGDGLVAAHIIARVHSEVENILPKAPEA
notes: CsoS1C, Halothiobacillus neapolitanus c2; gene fragment amplified from the cso-2 operon; source: E. coli BL21 (DE3), pET-22b, purified (Ni-NTA, Superdex 200)
stoichiometry N [1]: 6

binding result [11]: binds
B9: CsoS1C (untagged, coexpressed with His-tagged CsoS1B) (natural protein, Halothiobacillus neapolitanus c2)
chain: MAAVTGIALGMIETRGLVPAIEAADAMTKAAEVRLVGRQFVGGGYVTVLVRGETGAVNAAVRAGADACERVGDGLVAAHIIARVHSEVENILPKAPEA
notes: CsoS1C, Halothiobacillus neapolitanus c2; gene amplified from the cso-2 operon, the His tag stands on CsoS1B only; source: E. coli BL21 (DE3), pET-22b csoS1C-csoS1B, co-purified with His-tagged CsoS1B (Ni-NTA, Superdex 200)

binding result [12]: binds
B10: CsoS4B (C-terminal His tag; expressed alone or coexpressed with CsoS4A) (natural protein, Halothiobacillus neapolitanus c2, UniProt O85044 1-81, looked up)
chain: MEVMRVRSDLIATRRIPGLKNISLRVMEDATGKVSVACDPIGVPEGCWVFTISGSAARFGVGDFEILTDLTIGGIIDHWVT
notes: CsoS4B, Halothiobacillus neapolitanus c2; gene fragment amplified from the cso-2 operon; Five copies when expressed alone; source: E. coli BL21 (DE3), pET-22b, purified (Ni-NTA, Superdex 200)
stoichiometry N [5]: 5
